This is an account of results in patent US9834754B2, “Populations of hematopoietic progenitors and methods of enriching stem cells therefor” (University Health Network, priority 2011, dated 2017).

The subject of the assay is H1 hESCs differentiated as embryoid bodies (EBs). Nature of the assay: Hematopoietic colony assay of hESC-derived EBs. The assay is classed as cell-based, human. As to the method: The hESC line H1 (Thomson et al., 1998) and the reprogrammed human iPS cell line (MSC-iPS1; (Park et al., 2008)) were used in this study. They were maintained on irradiated mouse embryonic fibroblasts in hESC media as described previously (Kennedy et al., 2007). Prior to differentiation, the cells were feeder-depleted by culturing on matrigel (BD Biosciences, Bedford, Mass.) in hESC media for 24 to 48 hours. To generate EBs, hPSCs were treated with collagenase B (1 mg/ml; Roche, Indianapolis, Ind.) for 20 minutes followed by a short trypsin-EDTA (0.05%) step. Cells were gently scraped with a cell scraper to form small aggregates (10-20 cells). Aggregates were resuspended in StemPro-34 (Invitrogen), supplemented with penicillin/streptomycin (10 ng/mL), L-glutamine (2 mM), ascorbic acid (1 mM), monothioglycerol (MTG, 4×10^−4M; Sigma), and transferrin (150 μg/mL). BMP-4 (10 ng/mL), bFGF (5 ng/mL), Activin A, 6 μM SB-431542, VEGF (15 ng/mL), Dkk (150 ng/mL), IL-6 (10 ng/mL), IGF-1 (25 ng/mL), IL-11 (5 ng/mL), SCF (50 ng/mL), EPO (2 U/mL final), TPO (30 ng/mL), IL-3 (30 ng/mL) and Flt-3L (10 ng/mL) were added as indicated. Cultures were maintained in a 5% CO2/5% O2/90% N2 environment for the first 8 days and then transferred to a 5% CO2/air environment. All recombinant factors are human and were purchased from R&D Systems (Minneapolis, Minn.).
Analysis of hematopoietic colony potential was performed by plating either 5×103-2.5×10^4 sorted cells or 2.5×104-5.0×104 unfractionated EB populations in 1% methylcellulose containing specific cytokines as described in detail previously (Kennedy et al., 2007). Colonies consisting of erythroid, erythroid/myeloid and myeloid (either macrophage or mast cell) cells were quantified after 10-14 days.

B1: Activin A: recombinant human factor purchased from R&D Systems, used for hematopoietic induction (protein, UniProt P08476 311-426, looked up)
Inhibin beta A chain: GLECDGKVNICCKKQFFVSFKDIGWNDWIIAPSGYHANYCEGECPSHIAGTSGSSLSFHSTVINHYRMRGHSPFANLKSCCVPTKLRPMSMLYYDDGQNIIKKDIQNMIVEECGCS
In the case of B1, the “induction of myeloid and erythroid progenitors” value (0.3 ng/mL Activin A) is “effectively induced both myeloid and erythroid progenitors”. In addition, the “myeloid progenitors in day 13 EBs” value (increasing concentrations of Activin A, days 2-4, FIG. 1C) is on record as “reduction in myeloid progenitors”. Moreover, the “erythroid progenitors in day 13 EBs” value (treatment between days 2 and 4 of differentiation, Activin A at increasing concentrations, FIG. 1C) is reported as “increase in erythroid progenitors”.
